Results reported in US20260356955 (published 2026).
Like-named read-outs stand apart in the source and are kept apart here.

What was measured:
[1] = target: human KLRB1 ECD (human); test: SPR
[2] = target: human KLRB1 ECD (human); test: ELISA
[3] = target: T1, cynomolgus KLRB1 on CHO-K1 (cynomolgus); test: FACS
T1 chain: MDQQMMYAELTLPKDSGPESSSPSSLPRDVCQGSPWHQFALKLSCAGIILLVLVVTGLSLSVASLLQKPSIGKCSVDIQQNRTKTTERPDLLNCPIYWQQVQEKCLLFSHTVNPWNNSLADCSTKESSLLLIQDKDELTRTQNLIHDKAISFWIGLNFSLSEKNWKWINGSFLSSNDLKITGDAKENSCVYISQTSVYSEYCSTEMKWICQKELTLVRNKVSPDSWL

[4] = target: T2, cynomolgus KLRB1 ECD (cynomolgus); test: ELISA
T2 chain: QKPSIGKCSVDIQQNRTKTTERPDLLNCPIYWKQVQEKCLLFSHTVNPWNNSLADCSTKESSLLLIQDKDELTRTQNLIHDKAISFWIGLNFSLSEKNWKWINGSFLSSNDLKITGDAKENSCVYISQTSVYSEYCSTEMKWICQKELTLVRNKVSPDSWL

[5] = target: human KLRB1 on CHO-K1 (human); test: competition, CLEC2D, FACS
human KLRB1 on CHO-K1 (human), sequence (chain, as listed by the source): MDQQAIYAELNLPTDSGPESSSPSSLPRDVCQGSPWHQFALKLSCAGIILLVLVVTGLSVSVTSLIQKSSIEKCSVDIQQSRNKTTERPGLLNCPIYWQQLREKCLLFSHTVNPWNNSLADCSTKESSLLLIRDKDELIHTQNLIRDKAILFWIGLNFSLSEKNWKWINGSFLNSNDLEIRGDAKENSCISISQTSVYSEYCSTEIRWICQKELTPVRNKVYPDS

[6] = target: human KLRB1 on CHO-K1 (human); test: FACS
[7] = target: human KLRB1 ECD (human); test: ELISA; remark: listed apart in the source
[8] = target: human KLRB1 on CHO-K1 (human); test: FACS; remark: listed apart in the source
[9] = target: T1, cynomolgus KLRB1 on CHO-K1; test: FACS

human KLRB1 ECD (human), sequence (chain, as listed by the source): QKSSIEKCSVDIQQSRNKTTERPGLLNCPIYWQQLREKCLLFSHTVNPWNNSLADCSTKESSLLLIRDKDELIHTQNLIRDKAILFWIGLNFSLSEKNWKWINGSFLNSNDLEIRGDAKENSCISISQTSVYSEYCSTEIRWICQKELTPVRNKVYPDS

B1: Hu22F10G3-1.4 (antibody, V domains shown)
VH: QVQLQESGPGLVKPSQTLSLTCTVSGYSLTSDFAWNWIRQHPGKGLEWIGDIRYSGSTDYNPSLKGRVTISVDTSKNQFSLKLSSVTAADTAVYYCARGGYYGYDEGYPMDYWGQGTLVTVSS
VL: DIVMTQSPDSLAVSLGERATISCRASESVDVYGNSFMHWYQQKPGQPPKLLIYLAFNLKSGVPARFSGSGSGTDFTLTISSLQAEDVATYYCQQNNEDPFTFGQGTKLEIK
Work on B1 yielded a Kd [1] of 0.153 nM.

B2: Hu22F10G3-1.3 (antibody, V domains shown)
VH: QVQLQESGPGLVKPSQTLSLTCTVSGYSLTSDFAWNWIRQHPGKGLEWIGDIRYSGSTDYNPSLKGRVTISVDTSKNQFSLKLSSVTAADTAVYYCARGGYYGYDEGYPMDYWGQGTLVTVSS
VL: DIVMTQSPDSLAVSLGERATISCRASESVDVYGNSFMHWYQQKPGQPPKLLIYLAFNLKSGVPDRFSGSGSGTDFTLTISSLQAEDVAVYYCQQNNEDPFTFGQGTKLEIK
In the case of B2, the Kd [1] is reported as 0.177 nM.

B3: Hu22F10G3-2.2 (antibody, V domains shown)
VH: QVQLQESGPGLVKPSQTLSLTCTVSGYSLTSDFAWNWIRQHPGKGLEWMGDIRYSGSTDYNPSLKGRVTISRDTSKNQFSLKLSSVTAADTAVYYCARGGYYGYDEGYPMDYWGQGTLVTVSS
VL: DIVMTQSPDSLAVSLGERATINCRASESVDVYGNSFMHWYQQKPGQPPKLLIYLAFNLKSGVPARFSGSGSGTDFTLTISSLQAEDVAVYYCQQNNEDPFTFGQGTKLEIK
Work on B3 yielded a Kd [1] of 0.135 nM.

B4: Hu22F10G3-3.1 (antibody, V domains shown)
VH: QVQLQESGPGLVKPSQTLSLTCTVSGYSLTSDFAWNWIRQHPGKGLEWMGDIRYSGSTDYNPSLKGRSTISRDTSKNQFSLKLSSVTAADTAVYYCARGGYYGYDEGYPMDYWGQGTLVTVSS
VL: DIVMTQSPDSLAVSLGERATINCRASESVDVYGNSFMHWYQQKPGQPPKLLIYLAFNLKSGVPDRFSGSGSGTDFTLTISSLQAEDVAVYYCQQNNEDPFTFGQGTKLEIK
For B4, the Kd [1] was 0.122 nM.

B5: Hu22F10G3-3.3 (antibody, V domains shown)
VH: QVQLQESGPGLVKPSQTLSLTCTVSGYSLTSDFAWNWIRQHPGKGLEWMGDIRYSGSTDYNPSLKGRSTISRDTSKNQFSLKLSSVTAADTAVYYCARGGYYGYDEGYPMDYWGQGTLVTVSS
VL: DIVMTQSPDSLAVSLGERATISCRASESVDVYGNSFMHWYQQKPGQPPKLLIYLAFNLKSGVPDRFSGSGSGTDFTLTISSLQAEDVAVYYCQQNNEDPFTFGQGTKLEIK
B5 gave a Kd [1] of 0.18 nM.

B6: Hu22F10G3-4.4 (antibody, V domains shown)
VH: QVQLQESGPGLVKPSQTLSLTCTVSGYSLTSDFAWNWIRQFPGKGLEWMGDIRYSGSTDYNPSLKGRSTISRDTSKNQFFLKLSSVTAADTAVYYCARGGYYGYDEGYPMDYWGQGTLVTVSS
VL: DIVMTQSPDSLAVSLGERATISCRASESVDVYGNSFMHWYQQKPGQPPKLLIYLAFNLKSGVPARFSGSGSGTDFTLTISSLQAEDVATYYCQQNNEDPFTFGQGTKLEIK
B6 showed a Kd [1] of 0.121 nM.

B7: Hu22F10G3-2.4 (antibody, V domains shown)
VH: QVQLQESGPGLVKPSQTLSLTCTVSGYSLTSDFAWNWIRQHPGKGLEWMGDIRYSGSTDYNPSLKGRVTISRDTSKNQFSLKLSSVTAADTAVYYCARGGYYGYDEGYPMDYWGQGTLVTVSS
VL: DIVMTQSPDSLAVSLGERATISCRASESVDVYGNSFMHWYQQKPGQPPKLLIYLAFNLKSGVPARFSGSGSGTDFTLTISSLQAEDVATYYCQQNNEDPFTFGQGTKLEIK
Work on B7 yielded a Kd [1] of 0.116 nM.

B8: Hu22F10G3-4.1 (antibody, V domains shown)
VH: QVQLQESGPGLVKPSQTLSLTCTVSGYSLTSDFAWNWIRQFPGKGLEWMGDIRYSGSTDYNPSLKGRSTISRDTSKNQFFLKLSSVTAADTAVYYCARGGYYGYDEGYPMDYWGQGTLVTVSS
VL: DIVMTQSPDSLAVSLGERATINCRASESVDVYGNSFMHWYQQKPGQPPKLLIYLAFNLKSGVPDRFSGSGSGTDFTLTISSLQAEDVAVYYCQQNNEDPFTFGQGTKLEIK
B8 was tested, and the Kd [1] was 0.105 nM.

B9: Hu22F10G3-4.3 (antibody, V domains shown)
VH: QVQLQESGPGLVKPSQTLSLTCTVSGYSLTSDFAWNWIRQFPGKGLEWMGDIRYSGSTDYNPSLKGRSTISRDTSKNQFFLKLSSVTAADTAVYYCARGGYYGYDEGYPMDYWGQGTLVTVSS
VL: DIVMTQSPDSLAVSLGERATISCRASESVDVYGNSFMHWYQQKPGQPPKLLIYLAFNLKSGVPDRFSGSGSGTDFTLTISSLQAEDVAVYYCQQNNEDPFTFGQGTKLEIK
B9 showed a Kd [1] of 0.0972 nM.

B10: Hu22F10G3-4.2 (antibody, V domains shown)
VH: QVQLQESGPGLVKPSQTLSLTCTVSGYSLTSDFAWNWIRQFPGKGLEWMGDIRYSGSTDYNPSLKGRSTISRDTSKNQFFLKLSSVTAADTAVYYCARGGYYGYDEGYPMDYWGQGTLVTVSS
VL: DIVMTQSPDSLAVSLGERATINCRASESVDVYGNSFMHWYQQKPGQPPKLLIYLAFNLKSGVPARFSGSGSGTDFTLTISSLQAEDVAVYYCQQNNEDPFTFGQGTKLEIK
B10 gave a Kd [1] of 0.13 nM.

B11: Hu22F10G3-1.2 (antibody, V domains shown)
VH: QVQLQESGPGLVKPSQTLSLTCTVSGYSLTSDFAWNWIRQHPGKGLEWIGDIRYSGSTDYNPSLKGRVTISVDTSKNQFSLKLSSVTAADTAVYYCARGGYYGYDEGYPMDYWGQGTLVTVSS
VL: DIVMTQSPDSLAVSLGERATINCRASESVDVYGNSFMHWYQQKPGQPPKLLIYLAFNLKSGVPARFSGSGSGTDFTLTISSLQAEDVAVYYCQQNNEDPFTFGQGTKLEIK
Work on B11 yielded a Kd [1] of 0.152 nM.

B12: Hu22F10G3-3.2 (antibody, V domains shown)
VH: QVQLQESGPGLVKPSQTLSLTCTVSGYSLTSDFAWNWIRQHPGKGLEWMGDIRYSGSTDYNPSLKGRSTISRDTSKNQFSLKLSSVTAADTAVYYCARGGYYGYDEGYPMDYWGQGTLVTVSS
VL: DIVMTQSPDSLAVSLGERATINCRASESVDVYGNSFMHWYQQKPGQPPKLLIYLAFNLKSGVPARFSGSGSGTDFTLTISSLQAEDVAVYYCQQNNEDPFTFGQGTKLEIK
In the case of B12, the Kd [1] is reported as 0.189 nM.

B13: Hu22F10G3-2.1 (antibody, V domains shown)
VH: QVQLQESGPGLVKPSQTLSLTCTVSGYSLTSDFAWNWIRQHPGKGLEWMGDIRYSGSTDYNPSLKGRVTISRDTSKNQFSLKLSSVTAADTAVYYCARGGYYGYDEGYPMDYWGQGTLVTVSS
VL: DIVMTQSPDSLAVSLGERATINCRASESVDVYGNSFMHWYQQKPGQPPKLLIYLAFNLKSGVPDRFSGSGSGTDFTLTISSLQAEDVAVYYCQQNNEDPFTFGQGTKLEIK
B13 gave a Kd [1] of 0.104 nM.

B14: Hu47A5H2-05 (antibody, V domains shown)
VH: QVQLVQSGAEVKKPGASVKVSCKASGYSFTGYWMHWVRQAPGQGLEWMGMIHPSDSETRLNQKFKDRVTMTVDTSTSTVYMELSSLRSEDTAVYYCASEGLRRGSFAYWGQGTLVTVSS
VL: DIVMTQSPDSLAVSLGERATINCRASESVDNYGMTFMSWYQQKPGQPPKLLIYAASNQGSGVPDRFSGSGSGTDFTLTISSLQAEDVAVYYCQQSKEVPYTFGQGTKLEIK
B14 showed an EC50 [2] of 0.0172 nM, an EC50 [3] of 5.22 nM and an EC50 [4] of 0.0824 nM. The IC50 [5] was 2.16 nM and the EC50 [6] was 1.49 nM.

B15: Hu47A5H2-08 (antibody, V domains shown)
VH: QVQLVQSGAEVKKPGASVKVSCKASGYSFTGYWMHWVRQAPGQGLEWMGMIHPSDSETRLNQKFKDRVTMTVDTSTSTVYMELSSLRSEDTAVYYCASEGLRRGSFAYWGQGTLVTVSS
VL: EIVLTQSPATLSLSPGERATLSCRASESVDNYGMTFMSWYQQKPGQAPRLLIYAASNQGSGIPARFSGSGSGTDFTLTISSLEPEDFAVYYCQQSKEVPYTFGQGTKLEIK
B15 showed an EC50 [2] of 0.0174 nM, an EC50 [3] of 2.55 nM and an EC50 [4] of 0.0306 nM. For the same binder, the IC50 [5] was 2.42 nM and the EC50 [6] was 1.68 nM.

B16: Hu47A5H2-12 (antibody, V domains shown)
VH: QVQLVQSGAEVKKPGASVKVSCKASGYSFTGYWMHWVRQAPGQGLEWMGMIHPSDSETRLNQKFKDRVTMTVDKSTSTVYMELSSLRSEDTAVYYCASEGLRRGSFAYWGQGTLVTVSS
VL: EIVLTQSPATLSLSPGERATLSCRASESVDNYGMTFMSWYQQKPGQAPRLLIYAASNQGSGIPARFSGSGSGTDFTLTISSLEPEDFAVYYCQQSKEVPYTFGQGTKLEIK
For B16, the EC50 [2] was 0.0263 nM, the EC50 [3] was roughly 1.69 nM and the EC50 [4] was 0.02 nM. For the same binder, the IC50 [5] was 2.17 nM and the EC50 [6] was 5.16 nM.

B17: Hu50A8F2-15 (antibody, V domains shown)
VH: QVQLVQSGAEVKKPGASVKVSCKASGYTFIDYYINWVRQAPGQGLEWIGWIFPGSGHTKYNENFKGKVTLTVDTSTSTVYMELSSLRSEDTAVYFCARGDRSALGYFDYWGQGTTVTVSS
VL: DIQLTQSPSSLSASVGDRVTITCTASSSVSSTYLHWYQQKPGKSPKLLIYSTSNLASGVPSRFSGSGSGTDYTLTISSLQPEDFATYYCHQYHRSPLTFGQGTKLEIK
For B17, the EC50 [7] was 0.0148 nM, the EC50 [8] was 5.39 nM and the binding result [9] was “no binding”.

B18: Hu50A8F2-16 (antibody, V domains shown)
VH: QVQLVQSGAEVKKPGASVKVSCKASGYTFIDYYINWVRQAPGQGLEWIGWIFPGSGHTKYNENFKGKVTLTVDTSTSTVYMELSSLRSEDTAVYFCARGDRSALGYFDYWGQGTTVTVSS
VL: DIQLTQSPSSLSASVGDRVTITCTASSSVSSTYLHWYQQKPGKSPKLLIYSTSNLASGVPSRFSGSGSGTDYTLTISSLQPEDAATYYCHQYHRSPLTFGQGTKLEIK
In the case of B18, the EC50 [7] is reported as 0.0103 nM, the EC50 [8] is reported as 5.27 nM and the binding result [9] is reported as “no binding”.
